Laboratory results as given in patent US20230058774A1.

Legend:
[1] = biological target: human Fas, wild type (human) (UniProt P25445); assay: cell-based or functional assay
[2] = biological target: FasDNR (Fas dominant negative receptor, deletion of amino acids 230-314 of human Fas) (human) (UniProt P25445); assay: cell-based or functional assay

“soluble FasL oligomerized through a leucine zipper motif (FasL-LZ) (from UniProt P48023 103-281) (ligand)” was tested, and the apoptosis (active Caspase3/7 and Annexin V) of primary human CD8+ T cells exposed to 100 ng/ml FasL-LZ [1] was 70% and the apoptosis (active Caspase3/7 and Annexin V) of primary human CD8+ T cells exposed to 100 ng/ml FasL-LZ [2] was less than 20%.
